Assays:
HLA-A*26:01 = test: IEDB peptide-MHC binding, purified MHC/direct/fluorescence; filed as Kd, often an IC50 or EC50 that approximates it; ≥ and ≤ were set here for values at or beyond the usual limits of such assays
HLA-C*15:02 = test: as above; conditions: source organism: Campylobacter jejuni
HLA-C*06:02 = test: as above; conditions: source organism: Campylobacter jejuni
HLA-C*14:02 = test: as above; conditions: source organism: Campylobacter jejuni
HLA-B*83:01 = test: IEDB peptide-MHC binding, purified MHC/competitive/fluorescence; filed as Kd, often an IC50 or EC50 that approximates it; ≥ and ≤ were set here for values at or beyond the usual limits of such assays
HLA-B*45:06 = test: as above
HLA-B*15:42 = test: as above
HLA-A*32:15 = test: as above
HLA-B*46:01 = test: IEDB peptide-MHC binding, purified MHC/direct/fluorescence; filed as Kd, often an IC50 or EC50 that approximates it; ≥ and ≤ were set here for values at or beyond the usual limits of such assays; conditions: source organism: Mycobacterium tuberculosis
HLA-B*38:01 = test: as above
HLA-B*08:02 = test: as above
HLA-A*01:01 = test: as above; conditions: source organism: Mycobacterium tuberculosis
HLA-B*15:17 = test: as above; conditions: source organism: Mycobacterium tuberculosis
HLA-B*48:01 = test: as above; conditions: source organism: Mycobacterium tuberculosis
HLA-B*15:01 [1] = test: as above; conditions: source organism: Mycobacterium tuberculosis
HLA-A*02:01 = test: as above
HLA-B*18:01 = test: as above; conditions: source organism: Mycobacterium tuberculosis
HLA-B*57:01 = test: as above; conditions: source organism: Mycobacterium tuberculosis
HLA-B*08:01 = test: as above
HLA-A*11:01 = test: as above; conditions: source organism: Mycobacterium tuberculosis
HLA-A*31:01 = test: as above; conditions: source organism: Mycobacterium tuberculosis
HLA-A*69:01 = test: as above; conditions: source organism: Mycobacterium tuberculosis
HLA-B*51:01 = test: as above; conditions: source organism: Mycobacterium tuberculosis
HLA-B*58:01 = test: as above; conditions: source organism: Mycobacterium tuberculosis
HLA-B*40:01 = test: as above; conditions: source organism: Mycobacterium tuberculosis
HLA-B*27:05 = test: as above; conditions: source organism: Mycobacterium tuberculosis
HLA-A*03:01 = test: as above; conditions: source organism: Mycobacterium tuberculosis
HLA-C*03:03 = test: as above; conditions: source organism: Mammarenavirus juninense
HLA-A*32:07 = test: IEDB peptide-MHC binding, purified MHC/competitive/fluorescence; filed as Kd, often an IC50 or EC50 that approximates it; ≥ and ≤ were set here for values at or beyond the usual limits of such assays; conditions: source organism: Mammarenavirus juninense
HLA-B*27:20 = test: as above; conditions: source organism: Mammarenavirus juninense
HLA-B*15:01 [2] = test: as above
HLA-A*30:01 = test: IEDB peptide-MHC binding, purified MHC/direct/fluorescence; filed as Kd, often an IC50 or EC50 that approximates it; ≥ and ≤ were set here for values at or beyond the usual limits of such assays; conditions: source organism: Mycobacterium tuberculosis str. Haarlem
HLA-B*15:09 = test: IEDB peptide-MHC binding, purified MHC/competitive/fluorescence; filed as Kd, often an IC50 or EC50 that approximates it; ≥ and ≤ were set here for values at or beyond the usual limits of such assays; conditions: source organism: Mycobacterium tuberculosis C
HLA-B*39:01 = test: as above; conditions: source organism: Mycobacterium tuberculosis C
[3] = source organism: Campylobacter jejuni
[4] = source organism: Mycobacterium tuberculosis F11
[5] = source organism: Mycobacterium tuberculosis
[6] = source organism: Mammarenavirus juninense
[7] = source organism: Mycobacterium tuberculosis str. Haarlem
[8] = source organism: Mycobacterium tuberculosis variant bovis BCG str. Pasteur 1173P2

Row | Sequence | Kd (HLA-B*46:01) [µM] | Kd (HLA-A*01:01) [µM] | Kd (HLA-B*15:17) [µM] | Kd (HLA-B*48:01) [µM] | Kd (HLA-A*02:01; [5]) [µM] | Kd (HLA-B*18:01) [µM] | Kd (HLA-B*57:01) [µM] | Kd (HLA-A*11:01) [µM] | Kd (HLA-A*31:01) [µM] | Kd (HLA-A*69:01) [µM] | Kd (HLA-B*51:01) [µM] | Kd (HLA-B*58:01) [µM] | Kd (HLA-B*40:01) [µM] | Kd (HLA-B*27:05) [µM] | Kd (HLA-A*03:01) [µM] | Kd (HLA-B*38:01; [7]) [µM] | Kd (HLA-B*08:02; [7]) [µM] | Kd (HLA-B*08:01; [7]) [µM] | further results
1 | YTKKYLLSF |  |  |  |  |  |  |  |  |  |  |  |  |  |  |  |  |  |  | Kd (HLA-A*26:01; source organism: Campylobacter jejuni subsp. jejuni 81116): 0.002 µM; Kd (HLA-C*15:02): 5 µM; Kd (HLA-C*06:02): ≥ 20 µM; Kd (HLA-C*14:02): 2.05 µM; Kd (HLA-B*83:01; [3]): ≥ 5 µM; Kd (HLA-B*45:06; [3]): ≥ 5 µM; Kd (HLA-B*15:42; [3]): ≥ 5 µM; Kd (HLA-A*32:15; [3]): 0.235 µM
2 | KPKLARGEL | ≥ 20 | ≥ 20 | ≥ 20 | ≥ 20 | ≥ 20 | 2.57 | ≥ 20 | ≥ 20 | ≥ 20 | ≥ 20 | ≥ 20 | ≥ 20 | 1.16 | ≥ 20 | ≥ 20 |  |  |  | Kd (HLA-B*38:01; [4]): ≥ 20 µM; Kd (HLA-A*26:01; [4]): ≥ 20 µM; Kd (HLA-B*08:02; [4]): ≥ 5 µM; Kd (HLA-B*15:01 [1]): ≥ 20 µM; Kd (HLA-B*08:01; [4]): 0.19 µM
3 | KLMDVVYSI |  |  |  |  |  |  |  |  |  |  |  |  |  |  |  |  |  |  | Kd (HLA-A*02:01; [6]): 0.0009 µM; Kd (HLA-C*03:03): ≥ 20 µM; Kd (HLA-A*32:07): 0.0021 µM; Kd (HLA-B*45:06; [6]): ≥ 5 µM; Kd (HLA-B*15:42; [6]): ≥ 5 µM; Kd (HLA-A*32:15; [6]): 0.0556 µM; Kd (HLA-B*27:20): 0.0179 µM
4 | RPRVAQLTF | ≥ 20 | 4.16 | 0.169 | ≥ 20 | ≥ 20 | 0.104 | 0.864 | ≥ 20 | ≥ 20 | ≥ 20 | ≥ 20 | ≥ 20 | ≥ 20 | ≥ 20 | ≥ 20 | ≥ 20 | 3.86 | 0.267 | Kd (HLA-B*15:01 [2]; [8]): ≥ 20 µM; Kd (HLA-B*83:01; [8]): 2.01 µM; Kd (HLA-B*45:06; [8]): ≥ 5 µM; Kd (HLA-B*15:42; [8]): ≥ 5 µM
5 | RPKPDYSAM | ≥ 20 | ≥ 20 |  | ≥ 20 | ≥ 20 | ≥ 20 | ≥ 20 | ≥ 20 | ≥ 20 | ≥ 20 | ≥ 20 | ≥ 20 | ≥ 20 | ≥ 20 | ≥ 20 | ≥ 20 | ≥ 20 | 0.08 | Kd (HLA-A*26:01; [7]): ≥ 20 µM; Kd (HLA-A*30:01): 0.123 µM; Kd (HLA-B*15:01 [2]; source organism: Mycobacterium tuberculosis C): ≥ 20 µM; Kd (HLA-B*15:09): ≥ 20 µM; Kd (HLA-B*39:01): 1.96 µM

— the Immune Epitope Database (IEDB)
